Test results: US20110152166A1, “METHOD OF MODULATION OF PROTEIN PHOSPHORYLATION-DEPENDENT CONFORMATIONAL TRANSITIONS WITH LOW MOLECULAR WEIGHT COMPOUNDS” (priority 2006, published 2011)
Changes are numbered by the printed parent chain. Square brackets hold non-standard residues; d marks the D form. Ends that are not written are not given here. pS = N[C@@H](COP(=O)(O)O)C(=O)O

How the values were obtained:
Test in all cases: PDK1 activity assay with T308tide
Assay type in all cases: biochemical
GST-PDK1 wt = molecular target: T1, GST-PDK1 wt (Homo sapiens, UniProt O15530)
T1 construct: different protein constructs, comprising the full length protein or the catalytic domain alone; made in house; host or cells: HEK293 cells (pEBG-2T-PDK1)
T1 sequence (O15530 1-556): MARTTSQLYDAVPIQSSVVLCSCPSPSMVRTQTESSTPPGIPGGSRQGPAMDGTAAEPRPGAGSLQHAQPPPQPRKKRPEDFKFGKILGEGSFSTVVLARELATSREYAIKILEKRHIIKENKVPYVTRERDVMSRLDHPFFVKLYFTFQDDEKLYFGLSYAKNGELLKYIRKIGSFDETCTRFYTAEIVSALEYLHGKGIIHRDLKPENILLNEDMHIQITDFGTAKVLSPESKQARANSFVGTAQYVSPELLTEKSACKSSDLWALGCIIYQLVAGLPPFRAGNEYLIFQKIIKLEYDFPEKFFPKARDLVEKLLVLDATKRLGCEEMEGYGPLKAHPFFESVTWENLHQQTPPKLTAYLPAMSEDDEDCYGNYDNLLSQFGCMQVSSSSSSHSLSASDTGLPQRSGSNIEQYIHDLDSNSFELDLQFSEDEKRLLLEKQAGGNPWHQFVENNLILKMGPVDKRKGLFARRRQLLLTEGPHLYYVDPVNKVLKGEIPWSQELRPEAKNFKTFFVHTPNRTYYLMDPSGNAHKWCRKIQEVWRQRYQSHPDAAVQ
Description: (§1) Protein kinase activity tests were performed essentially as previously described (Balendran et al., 2000; Biondi et al., 2000; Biondi et al., 2001). Substrates used were either MBP (for PKCζ or polypeptides (Crosstide for PKB, S6K, SGK and PRK2; T308tide for PDK1, and Kemptide for PKA). PKA (Sigma) was measured in the presence of 100 μM cAMP. Alternatively, assays were performed in a 96 well format, aliquots spotted on p81 phosphocellulose papers (Whatmann), washed in 0.01% phosphoric acid, dried, and then exposed and analysed using Phospholmager technology (Storm, Molecular Dynamics). Activity measurements were performed in duplicates with less than 10% difference between duplicate pairs. Experiments were repeated at least twice, although most of the experiments were repeated multiple times, with similar results.
(§2) PDK1 activity assay was performed in a 20 μl mix containing 50 mM Tris-HCl pH 7.5, 0.05 mg/ml BSA, 0.1% β-mercaptoethanol, 10 mM MgCl2, 100 μM [γ^32P]ATP (5-50 cpm/pmol), 0.003% Brij, 150 ng PDK1, and T308tide (from 0.05 to 1 mM). PDK1 specific activity was approximately 5 U/mg (when measured at 1 mM T308tide). The effect of small compounds on PDK1 was repeated with proteins from different purification batches and with different protein constructs, comprising the full length protein or the catalytic domain alone, with similar results. […] This variability may be due to the PIFtide/compound-stimulated autophosphorylation of the activation loop in certain preparations having less than a 1:1 molar phosphorylation stoichiometry at this site.
(§3) PDK1 activity was measured at room temperature using a polypeptide substrate derived from the activation loop phosphorylation site of PKB, T308tide (0.1 mM). […] GST-PDK1 wt was purified in numerous occasions and the maximal activation level of different batches varied between 3 and 8 fold activation with PIFtide or compound 1. Variations in the basal activity and fold activation were also observed in mutants. Therefore, comparisons in the maximal level of activation between mutants should be performed with care. The data shown are from an experiment where PIFtide concentrations were tested between 50 nM and 20 µM and compound 1 concentrations were between 5 μM and 200 μM, in triplicate. AC50 and max. activity were estimated by fitting the data to a hyperbola using Kaleidagraph software. One Unit of PDK1 activity was defined as the amount required to catalyse the phosphorylation of 1 nmol of the T308tide in 1 min.

GST-PDK1 [Gln150Ala] = molecular target: T2, GST-PDK1 [Gln150Ala] (Homo sapiens, UniProt O15530, Q150A); conditions: PDK1[Gln150Ala]; 20 μM
T2 construct: different protein constructs, comprising the full length protein or the catalytic domain alone; made in house; host or cells: HEK293 cells (pEBG-2T-PDK1 mutant)
T2 sequence (O15530 1-556 Q150A): T1 sequence (O15530 1-556) with Q150A
Description: as §1, §2, §3

GST-PDK1 [Ile119Ala] = molecular target: T3, GST-PDK1 [Ile119Ala] (Homo sapiens, UniProt O15530, I119A); conditions: Ile119 mutant; P-HM-RSK 20 μM
T3 construct: different protein constructs, comprising the full length protein or the catalytic domain alone; made in house; host or cells: HEK293 cells (pEBG-2T-PDK1 mutant)
T3 sequence (O15530 1-556 I119A): T1 sequence (O15530 1-556) with I119A
Description: as §1, §2, §3

GST-PDK1 [Thr148Val] = molecular target: T4, GST-PDK1 [Thr148Val] (Homo sapiens, UniProt O15530, T148V); conditions: PDK1[Thr148Val]; 20 μM
T4 construct: different protein constructs, comprising the full length protein or the catalytic domain alone; made in house; host or cells: HEK293 cells (pEBG-2T-PDK1 mutant)
T4 sequence (O15530 1-556 T148V): T1 sequence (O15530 1-556) with T148V
Description: as §1, §2, §3

Row | activation of PDK1 (in words) (GST-PDK1 wt; concentrations up to 500 µM, data not shown) | activation of PDK1 mutant (in words) (GST-PDK1 [Gln150Ala]) | activation of PDK1 mutant (in words) (GST-PDK1 [Ile119Ala]) | activation of PDK1 mutant (in words) (GST-PDK1 [Thr148Val]) | activation of PDK1 (in words) (GST-PDK1 wt; PDK1 wild type) | Substance
1 | did not activate PDK1 |  |  |  |  | GFRDFDY [polypeptide comprising the complete hydrophobic motif present in PIFtide, reference compound]
2 |  | completely abolished | completely abolished | completely abolished | activated | P-HM-PKB: phosphorylated HM polypeptide of PKB: KGAGGGGFPQFS(P)YSA (KGAGGGGFPQF[pS]YSA) [reference compound]
